Source: US20080317767A1, “Tripartitle Raftophilic Strutures and their Use” (priority 2004, published 2008)
Where a SMILES comes first, the peptide text is derived from it. [ ]: non-standard residue; d: D form. The star is where a group is joined. Piperazinyl(4-RhodamineB) = CCN(CC)c1ccc2c(-c3ccccc3C(=O)N3CCN(*)CC3)c3ccc(=[N+](CC)CC)cc-3oc2c1; X1 = CC(C)CCC[C@@H](C)[C@H]1CCC2C3CCC4C[C@@H](O*)CC[C@]4(C)C3CC[C@@]21C; Sta = CC(C)C[C@H](N)[C@@H](O)CC(=O)O; βAla = NCCC(=O)O

Test: Qualitative solubility assessment in an aqueous medium
Format: physicochemical

Structure (SMILES): CCN(CC)c1ccc2c(-c3ccccc3C(=O)N3CCN(C(=O)CC[C@H](N)C(=O)NCCC(=O)NCC(=O)N[C@@H](CCC(=O)O)C(=O)N[C@H](C(=O)N[C@@H](CC(N)=O)C(=O)N[C@@H](CC(C)C)[C@@H](O)CC(=O)N[C@H](C(=O)N[C@@H](C)C(=O)N[C@@H](CCC(=O)O)C(=O)N[C@@H](Cc4ccccc4)C(=O)N[C@@H](CCCNC(=N)N)C(=O)N[C@@H](Cc4c[nH]cn4)C(=O)N[C@@H](CC(=O)O)C(=O)N[C@@H](CO)C(=O)NCC(=O)N[C@@H](Cc4ccc(O)cc4)C(=O)N[C@@H](CCC(=O)O)C(=O)N[C@H](C(=O)N[C@@H](Cc4c[nH]cn4)C(=O)N[C@@H](Cc4c[nH]cn4)C(=O)N[C@@H](CCC(N)=O)C(=O)N[C@@H](CCCCN)C(=O)N[C@@H](CC(C)C)C(=O)N[C@H](C(=O)N[C@@H](Cc4ccccc4)C(=O)N[C@@H](Cc4ccccc4)C(=O)N[C@@H](C)C(=O)N[C@@H](CCC(=O)O)C(=O)N[C@@H](CC(=O)O)C(=O)N[C@H](C(=O)NCC(=O)N[C@@H](CO)C(=O)N[C@@H](CC(N)=O)C(=O)N[C@@H](CCCCN)C(=O)N[C@@H](CC(=O)O[C@H]4CC[C@@]5(C)C(CCC6C5CC[C@@]5(C)C6CC[C@@H]5[C@H](C)CCCC(C)C)C4)C(N)=O)C(C)C)C(C)C)C(C)C)C(C)C)C(C)C)CC3)c3ccc(=[N+](CC)CC)cc-3oc2c1 (stereo partly shown) [compound 24b] (H-E(Piperazinyl(4-RhodamineB))[βAla]GEVN[Sta]VAEFRHDSGYEVHHQKLVFFAEDVGSNKD(X1)-NH2)
- solubility in an aqueous medium (qualitative comparison of 24b and 25b): higher solubility
